Assay [1] concerns the target activated blood coagulation factor X (FXa) (Homo sapiens, UniProt P00742). The following applies: background statement; cited from earlier work.
In assay [2] the target is human FXa (American Diagnostica Inc.) (human) (UniProt P00742).
Assay [3] shares this target. The source holds these as a separate data set.
For assay [4] the target is unchanged. This is another data set of the same source.
Assay [5] has the same target. The source holds these as a separate data set.
The target is the same in assay [6]. This is another data set of the same source.

Where two headings read alike, the source gives them in different places.

activated blood coagulation factor X (FXa), sequence (P00742 235-488 limits assumed): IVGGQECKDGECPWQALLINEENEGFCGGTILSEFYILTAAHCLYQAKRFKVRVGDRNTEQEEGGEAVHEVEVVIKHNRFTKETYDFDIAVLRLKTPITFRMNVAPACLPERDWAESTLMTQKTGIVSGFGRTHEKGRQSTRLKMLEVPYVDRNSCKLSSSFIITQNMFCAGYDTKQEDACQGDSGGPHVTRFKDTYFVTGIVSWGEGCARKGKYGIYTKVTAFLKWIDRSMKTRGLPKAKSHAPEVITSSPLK
activated blood coagulation factor X (FXa), sequence (P00742 41-179 partner limits assumed): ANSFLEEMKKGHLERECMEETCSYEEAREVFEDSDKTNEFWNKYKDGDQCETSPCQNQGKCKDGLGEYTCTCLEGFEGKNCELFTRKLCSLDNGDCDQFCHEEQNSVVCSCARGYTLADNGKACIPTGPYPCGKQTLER
human FXa (American Diagnostica Inc.) (human), sequence (P00742 41-488 limits assumed): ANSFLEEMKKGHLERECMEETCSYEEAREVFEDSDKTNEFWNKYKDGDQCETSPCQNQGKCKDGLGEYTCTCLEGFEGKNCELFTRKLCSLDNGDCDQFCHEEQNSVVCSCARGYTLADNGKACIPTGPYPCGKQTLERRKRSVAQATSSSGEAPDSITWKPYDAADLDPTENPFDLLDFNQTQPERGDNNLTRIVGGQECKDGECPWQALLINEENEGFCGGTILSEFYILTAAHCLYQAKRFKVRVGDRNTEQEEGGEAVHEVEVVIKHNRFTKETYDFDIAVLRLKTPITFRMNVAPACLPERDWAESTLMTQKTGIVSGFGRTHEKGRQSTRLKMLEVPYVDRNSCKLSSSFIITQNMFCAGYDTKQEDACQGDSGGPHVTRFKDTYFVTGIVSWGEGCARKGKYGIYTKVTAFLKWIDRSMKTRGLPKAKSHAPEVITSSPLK

As to “polypeptide of formula 1: unsubstituted parent polypeptide whose sequence coincides with a part of UTI or Bikunins (HI-30) (CNLPIVRGPCRAFIQLWAFDAVKGKCVLFPYGGCQGNGNKFYSEKECREYC) [reference compound]”, the FXa-inhibiting activity entry in assay [1] was “high FXa-inhibiting activity”. For AACNLPIVRGPCRAFIRLWAFDAVKGKCVLFPYGGCQGNGNKFYSEK [polypeptide Q19R], the human FXa-inhibiting activity (substrate S-2222, residual FXa activity) (times higher than polypeptide AN68) in assay [2] is 6. In assay [3], AACNLPIVEGPCRAFIQLWAFDAVKGKCVLFPYGGCQGNGNKFESEK [polypeptide R11E/Y46E] yielded a human FXa-inhibiting activity (substrate S-2222, residual FXa activity) (times higher than polypeptide AN68) of 3.

On to AACNLPIVRGPCRAFIRLWAFDAVKGKCVLFPYGGCQGNGNKFESEK [polypeptide Q19R/Y46E], for which the human FXa-inhibiting activity (substrate S-2222, residual FXa activity) (times higher than polypeptide AN68) in assay [4] turned out to be 10. Molecule AACNLPIVRGPCRAFIKLWAFDAVKGKCVLFPYGGCQGNGNKFESEK [polypeptide Q19K/Y46E] registered a human FXa-inhibiting activity (substrate S-2222, residual FXa activity) (times higher than polypeptide AN68) in assay [5] of 10. Molecule DDAACNLPIVRGPCRAFIKLWAFDAVKGKCVLFPYGGCQGNGNKFYSEK [polypeptide Q19K] had a human FXa-inhibiting activity (substrate S-2222, residual FXa activity) (times higher than polypeptide TN70) in assay [6] of 5.

B1: urinary trypsin inhibitor (protein, UniProt P02760 206-352, looked up)
Inter-alpha-trypsin inhibitor …: AVLPQEEEGSGGGQLVTEVTKKEDSCQLGYSAGPCMGMTSRYFYNGTSMACETFQYGGCMGNGNNFVTEKECLQTCRTVAACNLPIVRGPCRAFIQLWAFDAVKGKCVLFPYGGCQGNGNKFYSEKECREYCGVPGDGDEELLRFSN
modifications: Inter-alpha-trypsin inhibitor light chain
Turning to B1, in assay [1], the FXa-inhibiting activity entry is “hardly show such an activity”.

B2: HI-30: Bikunins (HI-30), natural protease inhibitor (protein, UniProt P02760 206-352, looked up)
Inter-alpha-trypsin inhibitor …: AVLPQEEEGSGGGQLVTEVTKKEDSCQLGYSAGPCMGMTSRYFYNGTSMACETFQYGGCMGNGNNFVTEKECLQTCRTVAACNLPIVRGPCRAFIQLWAFDAVKGKCVLFPYGGCQGNGNKFYSEKECREYCGVPGDGDEELLRFSN
modifications: Inter-alpha-trypsin inhibitor light chain
B2: the FXa-inhibiting activity result in assay [1] is given as “hardly show such an activity”.

Values taken from patent US5679770A, “Polypeptide, DNA fragment encoding the same, drug composition containing the same and process for producing the same” (Mochida Pharmaceutical Co., Ltd., priority 1991, dated 1997).
